Assay results reported in US20130136721A1, “Compositions and Methods of Generating a Differentiated Mesodermal Cell” (THE JOHNS HOPKINS UNIVERSITY, priority 2010, published 2013).
Entries after “also recorded” stand apart in the source; their conditions may differ.

What was measured:
H9 hESC = assay: Beating hEB assay (contracting hEB after forced aggregation cardiac differentiation); assay type: cell-based, human; settings: for effect on cardiac differentiation, phase 2 medium: supplement in d0-d2 medium; for effect on cardiac differentiation, phase 2 medium / effect on cardiac differentiation, phase 3 medium: contracting hEB d9; for effect on cardiac differentiation, phase 3 medium: supplement in d2-d4 medium
From the text: The cardiac differentiation protocol was divided into four distinct phases for optimization (FIG. 3A): phase 1: uniform undifferentiated growth; phase 2: hEB formation/mesoderm induction; phase 3: hEB cardiac specification; phase 4: contracting cardiomyocyte development. […] After an initial round of optimizations had been completed, optimizations was repeated a second time to account for the new media formulations and then a third time to optimize the final media formulation. In some cases fourth and fifth repeats were performed to improve the statistical power of the results. For each variable tested, the bell-curve distribution of dose-response was determined. Results shown are averages of the 2nd-5th replicates (FIG. 2B).
For forced aggregation hEB differentiations, confluent hESC or hiPSC which had been grown on a commercially available extracellular matrix, Geltrex (Invitrogen) as monolayers for 3 to 13 passages were passaged with TrypLE Select and seeded at 2.5×10^6 per T25 flask. After 24 hours growth, cells were washed with PBS and treated with room temperature TrypLE Select for 1 minute at 37° C. Cells were seeded at 5000 cells per well in 96-well V-bottom uncoated plates (249952, NUNC) in 100 μL per well RPMI+PVA medium consisting of RPMI Media 1640 (with L-Glutamine), 4 mg mL-1 polyvinyl alcohol (P8136, Sigma, dissolved in RPMI at 4° C. for at least 72 hours, mixing by inversion every day), 1% chemically defined lipid concentrate, 10 μg mL-1 recombinant human insulin (Sigma), 400 μM 1-thioglycerol (Sigma), 25 ng mL-1 BMP4 and 5 ng mL-1 FGF2 (both from R&D systems), 1 μM Y-27632 (Calbiochem). This medium is not stable and was made fresh for each experiment. After 48 hours (on day 2) medium was aspirated with a Costar 8-channel aspirator (Corning) and replaced with RPMI+FBS medium consisting RPMI Media 1640, 20% characterized FBS (Hyclone), 400 μM 1-thioglycerol. On day 4 media was changed to RPMI+PVA without growth factors and hEB were transferred to 96-well U-bottom tissue culture treated plates (650180, Greiner Bio-One). Media was changed on d7 and every 3 days afterwards. hEB were visually assessed for contraction on d9 using a Nikon Eclipse Ti inverted tissue culture microscope with a TOKAI-HIT heated stage (Nikon). Images were captured using NIS-Elements (Nikon). […] For traditional cardiac differentiations using FBS, undirected differentiation was performed as previously described (Kehat et al. J Clin Invest 108, 407-414 (2001)): briefly, confluent H9 hESC grown as colonies on MEF were treated with collagenase IV for 5 minutes at 37° C. then washed from the plate using a 5 mL pipette. Cell clusters were then transferred to Petri dishes in 20% FBS medium for 7 days. hEB were then transferred to gelatin coated tissue culture plates. Media was changed every 3 days.
One single replicate consists of one 96-well plate. Repeat replicates were performed 1-4 months apart using a different vial of cells. Each experiment was repeated at least 3 times representing at least 288 hEB. Total number of hEB assessed in this work exceeds 80,000. Wells in which no hEB was detected due to pipeting error were excluded and accounted for approximately 1-5% of wells. P-values were established using unpaired two-tailed Student's t-test.

iPS(IMR90)-1 hiPSC = assay: as above; assay type: cell-based, human; settings: d0-d2
From the text: The cardiac differentiation protocol was divided into four distinct phases for optimization (FIG. 3A): phase 1: uniform undifferentiated growth; phase 2: hEB formation/mesoderm induction; phase 3: hEB cardiac specification; phase 4: contracting cardiomyocyte development. A simple beating hEB assay was used to sequentially assess improvements in cardiac differentiation in each of these four phases by counting the number of hEB contracting after nine days of differentiation, a time point that was identified as the day of maximum percentage contraction in the enhanced ‘prototype’ version of the protocol (FIG. 1B). After an initial round of optimizations had been completed, optimizations was repeated a second time to account for the new media formulations and then a third time to optimize the final media formulation. […] For each variable tested, the bell-curve distribution of dose-response was determined. […]
For forced aggregation hEB differentiations, confluent hESC or hiPSC which had been grown on a commercially available extracellular matrix, Geltrex (Invitrogen) as monolayers for 3 to 13 passages were passaged with TrypLE Select and seeded at 2.5×10^6 per T25 flask. […] Media was changed on d7 and every 3 days afterwards. hEB were visually assessed for contraction on d9 using a Nikon Eclipse Ti inverted tissue culture microscope with a TOKAI-HIT heated stage (Nikon). […]

B1: BMP6: growth factor titrated between 1-100 ng mL-1 (protein, UniProt P22004 375-513, looked up)
Bone morphogenetic protein 6: SASSRRRQQSRNRSTQSQDVARVSSASDYNSSELKTACRKHELYVSFQDLGWQDWIIAPKGYAANYCDGECSFPLNAHMNATNHAIVQTLVHLMNPEYVPKPCCAPTKLNAISVLYFDDNSNVILKKYRNMVVRACGCH
effect on cardiac differentiation, phase 2 medium (H9 hESC): none were found to have the same potency as BMP4

B2: transferrin: bovine transferrin media supplement (protein, UniProt Q29443 20-704, looked up)
Serotransferrin: DPERTVRWCTISTHEANKCASFRENVLRILESGPFVSCVKKTSHMDCIKAISNNEADAVTLDGGLVYEAGLKPNNLKPVVAEFHGTKDNPQTHYYAVAVVKKDTDFKLNELRGKKSCHTGLGRSAGWNIPMAKLYKELPDPQESIQRAAANFFSASCVPCADQSSFPKLCQLCAGKGTDKCACSNHEPYFGYSGAFKCLMEGAGDVAFVKHSTVFDNLPNPEDRKNYELLCGDNTRKSVDDYQECYLAMVPSHAVVARTVGGKEDVIWELLNHAQEHFGKDKPDNFQLFQSPHGKDLLFKDSADGFLKIPSKMDFELYLGYEYVTALQNLRESKPPDSSKDECMVKWCAIGHQERTKCDRWSGFSGGAIECETAENTEECIAKIMKGEADAMSLDGGYLYIAGKCGLVPVLAENYKTEGESCKNTPEKGYLAVAVVKTSDANINWNNLKDKKSCHTAVDRTAGWNIPMGLLYSKINNCKFDEFFSAGCAPGSPRNSSLCALCIGSEKGTGKECVPNSNERYYGYTGAFRCLVEKGDVAFVKDQTVIQNTDGNNNEAWAKNLKKENFEVLCKDGTRKPVTDAENCHLARGPNHAVVSRKDKATCVEKILNKQQDDFGKSVTDCTSNFCLFQSNSKDLLFRDDTKCLASIAKKTYDSYLGDDYVRAMTNLRQCSTSKLLEACTFHKP
effect on cardiac differentiation, phase 2 medium (H9 hESC): either did not further enhance differentiation or had negative effects on differentiation | effect on cardiac differentiation, phase 3 medium (H9 hESC): Neither transferrin, L-ascorbic acid, lipids or NEAA enhanced this phase of differentiation | effect on cardiac differentiation, phase 4 medium (H9 hESC; supplement in d4 onwards medium): not required

B3: BMP4: bone morphogenic protein 4, mesodermal morphogen growth factor (protein, UniProt P12644 293-408, looked up)
Bone morphogenetic protein 4: SPKHHSQRARKKNKNCRRHSLYVDFSDVGWNDWIVAPPGYQAFYCHGDCPFPLADHLNSTNHAIVQTLVNSVNSSIPKACCVPTELSAISMLYLDEYDKVVLKNYQEMVVEGCGCR
most effective BMP4 concentration (iPS(IMR90)-1 hiPSC): 5 ng/mL | most effective BMP4 concentration (H9 hESC; d0-d2): 25 ng/mL | effect on cardiac differentiation, phase 3 medium (H9 hESC): did not further enhance this phase; also recorded: did not enhance cardiac differentiation

B4: activin A: growth factor titrated between 1-100 ng mL-1 (protein, UniProt P08476 311-426, looked up)
Inhibin beta A chain: GLECDGKVNICCKKQFFVSFKDIGWNDWIIAPSGYHANYCEGECPSHIAGTSGSSLSFHSTVINHYRMRGHSPFANLKSCCVPTKLRPMSMLYYDDGQNIIKKDIQNMIVEECGCS
effect on cardiac differentiation, phase 2 medium (H9 hESC): none were found to have the same potency as BMP4

B5: NODAL: growth factor titrated between 1-100 ng mL-1 (protein, UniProt Q96S42 238-347, looked up)
Nodal homolog: HHLPDRSQLCRKVKFQVDFNLIGWGSWIIYPKQYNAYRCEGECPNPVGEEFHPTNHAYIQSLLKRYQPHRVPSTCCAPVKTKPLSMLYVDNGRVLLDHHKDMIVEECGCL
effect on cardiac differentiation, phase 2 medium (H9 hESC): none were found to have the same potency as BMP4

B6: DKK1: additional supplement to serum-free d2-d4 medium (protein, UniProt O94907 32-266, looked up)
Dickkopf-related protein 1: TLNSVLNSNAIKNLPPPLGGAAGHPGSAVSAAPGILYPGGNKYQTIDNYQPYPCAEDEECGTDEYCASPTRGGDAGVQICLACRKRRKRCMRHAMCCPGNYCKNGICVSSDQNHFRGEIEETITESFGNDHSTLDGYSRRTTLSSKMYHTKGQEGSVCLRSSDCASGLCCARHFWSKICKPVLKEGQVCTKHRRKGSHGLEIFQRCYCGEGLSCRIQKDHHQASNSSRLHTCQRH
effect on cardiac differentiation, xeno- and serum-free d2-d4 medium (H9 hESC; supplement in serum-free d2-d4 medium): did not further enhance differentiation

B7: TDGF1: growth factor titrated between 1-100 ng mL-1 (protein, UniProt P13385 31-150, looked up)
Protein Cripto: LGHQEFARPSRGYLAFRDDSIWPQEEPAIRPRSSQRVPPMGIQHSKELNRTCCLNGGTCMLGSFCACPPSFYGRNCEHDVRKENCGSVPHDTWLPKKCSLCKCWHGQLRCFPQAFLPGCD
effect on cardiac differentiation, phase 2 medium (H9 hESC): none were found to have the same potency as BMP4
